Key:
fibrinogen [1] = target: T1, fibrinogen (Homo sapiens, UniProt P02671+P02675+P02679); experiment: Clottability assay (protein incorporation into clot); type: biochemical; conditions: all H6 concentrations tested
T1 sequence (P02671 20-629 limits assumed): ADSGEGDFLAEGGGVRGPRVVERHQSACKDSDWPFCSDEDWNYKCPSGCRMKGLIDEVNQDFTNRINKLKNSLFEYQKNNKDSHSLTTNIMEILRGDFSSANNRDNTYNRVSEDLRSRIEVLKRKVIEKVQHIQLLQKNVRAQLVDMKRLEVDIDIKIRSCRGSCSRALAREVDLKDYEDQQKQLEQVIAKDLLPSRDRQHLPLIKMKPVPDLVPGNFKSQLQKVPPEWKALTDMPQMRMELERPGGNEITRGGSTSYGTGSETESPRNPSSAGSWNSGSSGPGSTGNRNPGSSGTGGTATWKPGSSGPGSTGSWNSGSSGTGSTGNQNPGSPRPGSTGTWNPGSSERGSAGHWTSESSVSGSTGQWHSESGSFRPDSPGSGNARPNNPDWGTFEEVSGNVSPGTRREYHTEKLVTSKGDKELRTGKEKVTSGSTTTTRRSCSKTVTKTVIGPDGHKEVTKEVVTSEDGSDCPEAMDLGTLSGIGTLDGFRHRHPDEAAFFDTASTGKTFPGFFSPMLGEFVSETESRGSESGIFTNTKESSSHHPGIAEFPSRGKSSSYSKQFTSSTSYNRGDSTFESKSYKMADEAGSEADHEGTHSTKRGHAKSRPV
T1 sequence (P02675 31-491): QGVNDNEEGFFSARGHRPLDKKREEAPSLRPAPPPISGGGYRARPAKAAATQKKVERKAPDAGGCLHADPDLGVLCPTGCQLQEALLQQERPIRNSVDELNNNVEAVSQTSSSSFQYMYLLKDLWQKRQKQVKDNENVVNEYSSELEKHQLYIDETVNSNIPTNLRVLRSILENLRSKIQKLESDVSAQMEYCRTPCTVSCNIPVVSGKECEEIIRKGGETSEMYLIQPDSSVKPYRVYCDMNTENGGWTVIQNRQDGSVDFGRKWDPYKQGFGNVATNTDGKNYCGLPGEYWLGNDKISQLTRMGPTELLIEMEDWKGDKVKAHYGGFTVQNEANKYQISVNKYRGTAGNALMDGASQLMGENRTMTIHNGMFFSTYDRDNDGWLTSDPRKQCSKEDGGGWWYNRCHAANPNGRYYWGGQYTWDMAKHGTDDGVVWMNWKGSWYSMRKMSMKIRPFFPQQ
T1 sequence (P02679 27-453): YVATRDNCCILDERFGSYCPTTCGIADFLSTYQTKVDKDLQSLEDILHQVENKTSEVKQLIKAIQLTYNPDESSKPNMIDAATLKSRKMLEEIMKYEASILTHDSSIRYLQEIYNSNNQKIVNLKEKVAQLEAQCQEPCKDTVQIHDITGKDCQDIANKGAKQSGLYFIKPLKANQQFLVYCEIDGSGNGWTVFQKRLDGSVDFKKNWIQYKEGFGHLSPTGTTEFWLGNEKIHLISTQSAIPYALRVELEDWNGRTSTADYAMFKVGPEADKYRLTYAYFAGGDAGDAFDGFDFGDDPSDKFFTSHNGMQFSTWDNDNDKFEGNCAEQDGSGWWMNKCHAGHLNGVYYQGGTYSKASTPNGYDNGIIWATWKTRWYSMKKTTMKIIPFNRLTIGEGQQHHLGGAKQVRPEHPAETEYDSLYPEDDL
Protocol: The clottability assay involved clotting purified fibrinogen or fibrinogen in the presence of H6 or S11, subsequently removing the gelled clot from solution, and measuring the amount of protein that was not incorporated into the clot. The same molar ratios of H6 and S11 to fibrinogen were investigated as per the turbidity assay. Soluble protein concentrations were measured using standard Quant-It assay protocols, and results were normalized to unpolymerized fibrinogen or fibrinogen-nanobody solutions of identical protein composition.

BSA = BSA (Bos taurus, UniProt P02769); experiment: SPR on BSA surface; type: binding
Chain of BSA (P02769 25-607): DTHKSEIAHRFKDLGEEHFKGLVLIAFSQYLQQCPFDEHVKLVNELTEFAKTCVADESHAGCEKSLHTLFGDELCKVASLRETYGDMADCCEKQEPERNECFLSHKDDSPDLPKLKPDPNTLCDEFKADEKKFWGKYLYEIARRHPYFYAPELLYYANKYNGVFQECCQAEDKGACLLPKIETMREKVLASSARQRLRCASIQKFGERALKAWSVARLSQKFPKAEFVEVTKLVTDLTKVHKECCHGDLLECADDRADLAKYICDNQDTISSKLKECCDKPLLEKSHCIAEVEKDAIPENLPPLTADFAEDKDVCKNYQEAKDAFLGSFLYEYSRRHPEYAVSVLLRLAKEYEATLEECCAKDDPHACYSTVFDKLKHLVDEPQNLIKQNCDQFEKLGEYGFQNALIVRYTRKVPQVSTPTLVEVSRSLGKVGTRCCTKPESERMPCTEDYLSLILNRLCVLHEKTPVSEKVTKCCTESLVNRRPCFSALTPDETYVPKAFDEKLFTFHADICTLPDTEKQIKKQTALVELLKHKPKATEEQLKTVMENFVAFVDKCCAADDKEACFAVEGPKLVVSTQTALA
Source text: FIG. 2A is an SPR sensorgram of thin fibrin layer immobilized on surface the SPR channel via NHS/EDC activated carboxylic acid terminated SAM with subsequent injections of fibrinogen (1), ethanolamine quencher (2), HEPES buffer+Tween 20 (3), thrombin (4), and fibrinogen+anti-thrombin+heparin (5). FIGS. 2B-2K are representative SPR sensorgrams of scFvs on fibrin layer (FIGS. 2B-2F) or BSA surface (FIGS. 2G-2K) for clones A2 (FIGS. 2B and 2G), A6 (FIGS. 2C and 2H), H6 (FIGS. 2D and 2I), B3 (FIGS. 2E and 2J), or non-specific control (FIGS. 2F and 2K). Experimental data is shown in black and fits are shown in dotted line.
Based on previous SPR protocols developed in the lab^4, a thin fibrin layer was immobilized on the surface of a gold SPR chip via layer-by-layer deposition of fibrinogen-thrombin-fibrinogen^3. SdFvs were flowed across the fibrin surface and the binding interactions were evaluated and recorded. Additionally, antibody fragment binding interactions with a surface of immobilized fibrinogen was used to investigate the specificity to fibrin. All SPR data was examined and analyzed with Scrubber 2 and Clamp XP (Center for Biomolecular Interactions Analysis, University of Utah). Data simulation curves were generated based on a Langmuir 1:1 binding model assuming only a single ligand-analyte interaction.

human plasma components = experiment: Qualitative human plasma assay (protein A pull down, polyacrylamide gel); type: binding; conditions: 30 minutes room temperature
Protocol: H6 binding was determined through both qualitative and quantitative human plasma assays. The qualitative assay involved incubating either H6, the non-binding negative control, S11, or saline with human plasma at room temperature for 30 minutes. The plasma mixtures were subsequently incubated with protein A beads with the intent to pull down all IgG isotypes (including H6 and S11).
The eluants from the protein A pull down experiment were run on a polyacrylamide gradient gel to visualize any band shifts present in the H6-plasma solution that would indicate a binding interaction not present in the S11-plasma or saline-plasma solutions.

fibrinogen [2] = target: T1, fibrinogen; experiment: ELISAs of H6 binding to fibrinogen in various states of unfolding
Protocol: Characterization of H6 binding to fibrin was determined through a series of experiments designed to test the ability of H6 to bind fibrinogen in various states of unfolding.
In the first experiment ELISAs, as described previously, were performed comparing the ability of H6 to bind fibrinogen that was either passively adsorbed to a glass surface or immobilized to a glass surface, the assumption being that fibrinogen exists in a more unfolded state when adsorbed in comparison to when its immobilized on a surface.
This experiment was repeated comparing the ability of H6 to bind fibrinogen passively adsorbed to a plastic surface after having been heat-denatured, or not, with the assumption being that heat-denatured fibrinogen exists in a more unfolded state than that of fibrinogen that was not heat-denatured.
Finally, this experiment was repeated to compare the ability of H6 to bind fibrinogen that was passively adsorbed after no treatment, heat denaturing, heat denaturing plus reduction of sulfide bonds, or just reduction of sulfide bonds. The assumption is that reduction of sulfide bonds within a fibrinogen molecule in addition to heat denaturing result in an even greater extent of molecular unfolding than compared to heat denaturing alone.

B1: H6: fibrin-specific human sdFv clone from phage biopanning, SEQ ID NO: 1 (protein)
VHH: QVQLLESGGGLVQPGGSLRLSCAASGDRFTHNDMGWVRQAPGKGLEWVSTIPTTDGSTYYADSVKGRFTISRDNSKSTLYLQMNSLRAEDTAVYYCATGYMWKAPAYVKYWGQGTLVTVSSAAAEQKLISEEDLNSAAHYTDIG
Fibrinogen [1]
  protein incorporation (clottability): greater than 80%
BSA
  binding to BSA: negligible binding
Human plasma components
  non-specific binding to human plasma components (band shifts): did not non-specifically bind
Fibrinogen [2]; adsorbed and immobilized fibrinogen
  binding to fibrinogen on glass surface: weak
Fibrinogen [2]; glass surface
  binding to immobilized versus adsorbed fibrinogen: dose-dependent decrease in binding
Fibrinogen [2]; heat-denatured or not
  binding to fibrinogen adsorbed to plastic surface: weak binding
Fibrinogen [2]; no treatment, heat denaturing, reduction of sulfide bonds, or both
  binding to fibrinogen versus degree of unfolding: positively correlated to the degree of unfolding
Fibrinogen [2]; plastic surface
  binding to heat-denatured versus un-denatured fibrinogen: dose-dependent enhanced ability
